The target in experiment [1] is T1, recombinant furin, biotinylated (UniProt P09958 27-794, biotin). Description: BLI. Background: BLI is a label-free optical method that tracks binding on a fibre tip over time.
In experiment [2] the target is T1, recombinant furin, biotinylated. Description: BLI. This is another data set of the same source.

Two molecules from article PMC8826744 (2022) can be followed below.

T1 sequence (P09958 108-715): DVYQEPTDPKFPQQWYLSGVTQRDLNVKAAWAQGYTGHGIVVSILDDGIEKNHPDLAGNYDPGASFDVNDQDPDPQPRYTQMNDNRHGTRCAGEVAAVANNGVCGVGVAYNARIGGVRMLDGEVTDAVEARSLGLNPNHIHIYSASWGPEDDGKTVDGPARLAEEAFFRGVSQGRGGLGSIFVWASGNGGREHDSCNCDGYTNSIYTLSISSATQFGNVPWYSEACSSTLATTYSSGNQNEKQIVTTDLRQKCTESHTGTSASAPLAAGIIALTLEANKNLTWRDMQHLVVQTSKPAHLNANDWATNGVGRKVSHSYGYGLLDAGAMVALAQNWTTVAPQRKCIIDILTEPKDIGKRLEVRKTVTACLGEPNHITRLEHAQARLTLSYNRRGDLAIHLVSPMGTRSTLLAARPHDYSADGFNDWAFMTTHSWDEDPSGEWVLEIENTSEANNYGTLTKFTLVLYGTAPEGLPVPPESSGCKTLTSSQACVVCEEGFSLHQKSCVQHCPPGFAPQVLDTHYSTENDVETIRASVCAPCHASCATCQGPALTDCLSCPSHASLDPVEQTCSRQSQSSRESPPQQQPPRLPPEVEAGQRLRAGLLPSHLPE

B1: farletuzumab-FuG1 (antibody, V domains shown)
VH: EVQLVESGGGVVQPGRSLRLSCSASGFTFSGYGLSWVRQAPGKGLEWVAMISSGGSYTYYADSVKGRFAISRDNAKNTLFLQMDSLRPEDTGVYFCARHGDDPAWFAYWGQGTPVTVSS
VL: DIQLTQSPSSLSASVGDRVTITCSVSSSISSNNLHWYQQKPGKAPKPWIYGTSNLASGVPSRFSGSGSGTDYTFTISSLQPEDIATYYCQQWSSYPYMYTFGQGTKVEIK
In the case of B1, the koff in experiment [1] was determined as 8.65e-05 s⁻¹. Further, the dissociation constant (Kd) in experiment [2] was found to be 33 nM.

B2: farletuzumab-cFuG1 (antibody, V domains shown)
VH: B1 VH
VL: B1 VL
Regarding B2, the koff in experiment [1] stood at 0.000312 s⁻¹. Moreover, in experiment [2], the Kd was 7.5 nM.

The term koff denotes the rate constant with which the complex falls apart. A word on the Kd: it is the equilibrium constant for the complex coming apart.
